B1: Regulation of nuclear pre-mRNA domain-containing protein 1B (Homo sapiens), Q9NQG5 (parent)
chain: MSSFSESALEKKLSELSNSQQSVQTLSLWLIHHRKHAGPIVSVWHRELRKAKSNRKLTFLYLANDVIQNSKRKGPEFTREFESVLVDAFSHVAREADEGCKKPLERLLNIWQERSVYGGEFIQQLKLSMEDSKSPPPKATEEKKSLKRTFQQIQEEEDDDYPGSYSPQDPSAGPLLTEELIKALQDLENAASGDATVRQKIASLPQEVQDVSLLEKITDKEAAERLSKTVDEACLLLAEYNGRLAAELEDRRQLARMLVEYTQNQKDVLSEKEKKLEEYKQKLARVTQVRKELKSHIQSLPDLSLLPNVTGGLAPLPSAGDLFSTD

Variants of: B1
Settings: with rpb1_human POLR2A

| Variant | effect of a mutation on the interaction |
| --- | --- |
| MSSFSESALEKKLSELSNSQQSVQTLSLWLIHHRKHAGPIVSVWHRELRKAKSNRKLTFLYLANDVIQNSKRKGPEFTREFESVLVDAFSHVAREADEGCKKPLERLLNIWQEASVYGGEFIQQLKLSMEDSKSPPPKATEEKKSLKRTFQQIQEEEDDDYPGSYSPQDPSAGPLLTEELIKALQDLENAASGDATVRQKIASLPQEVQDVSLLEKITDKEAAERLSKTVDEACLLLAEYNGRLAAELEDRRQLARMLVEYTQNQKDVLSEKEKKLEEYKQKLARVTQVRKELKSHIQSLPDLSLLPNVTGGLAPLPSAGDLFSTD [R114A] | disrupting interaction strength |
